Biological target: the molecule itself
Experiment: AUC

B1: mouse E-cadherin EC1-5 ectodomain, wild type (domain or fragment)
chain: DWVIPPISCPENEKGEFPKNLVQIKSNRDKETKVFYSITGQGADKPPVGVFIIERETGWLKVTQPLDREAIAKYILYSHAVSSNGEAVEDPMEIVITVTDQNDNRPEFTQEVFEGSVAEGAVPGTSVMKVSATDADDDVNTYNAAIAYTIVSQDPELPHKNMFTVNRDTGVISVLTSGLDRESYPTYTLVVQAADLQGEGLSTTAKAVITVKDINDNAPVFNPSTYQGQVPENEVNARIATLKVTDDDAPNTPAWKAVYTVVNDPDQQFVVVTDPTTNDGILKTAKGLDFEAKQQYILHVRVENEEPFEGSLVPSTATVTVDVVDVNEAPIFMPAERRVEVPEDFGVGQEITSYTAREPDTFMDQKITYRIWRDTANWLEINPETGAIFTRAEMDREDAEHVKNSTYVALIIATDDGSPIATGTGTLLLVLLDVNDNAPIPEPRNMQFCQRNPQPHIITILDPDLPPNTSPFTAELTHGASVNWTIEYNDAAQESLILQPRKDLEIGEYKIHLKLADNQNKDQVTTLDVHVCDCEGTVNNCMKA
modifications: O-linked glycosylation observed in the structure
B1 showed a Kd of roughly 100 µM.

— article PMC3070544 (Structure (London, England : 1993), 2011)
